Test: soluble on expression in E. coli; label from the status in PepcDB or PDB records
For “DLIVTAGGKNVSPGPMEDIIRAHPLVSQAMVVGDGKPFVGLLVTLDPDMLKRWKLNHNIAESRTVSEIATDPALRAEIQDAVNNANATVSHSEAIKRFYILDRDLTEEADELTPTLKVKRNVVVRRYADAIDHIYNR”, the “soluble on expression in E. coli” value was “not soluble”.
For “CGKSEAPPPAQTPEVGIVTLEAQTVTLNTELPGRTNAFRIAEVRPQVNGIILKRLFKEGSDVKAGQQLYQIDPATYEADYQSAQANLASTQEQAQRYKLLVADQAVSKQQYADANAAYLQSKAAVEQARINLRYTKVLSPISGRIGRSAVTEGALVTNGQANAMATVQQLDPIYVDVTQPSTALLRLRRELASGQLERAGDNAAKVSLKLEDGSQYPLEGRLEFSEVSVDEGTGSVTIRAVFPNPNNELLPGMFVHAQLQEGVKQKAILAPQQGVTRDLKGQATALVVNAQNKVELRVIKADRVIGDKWLVTEGLNAGDKIITEGLQFVQPGVEVKTVPAKNVASAQKADAAPAKTDSKG”, the “soluble on expression in E. coli” value was “soluble”.
With “MGSDKIHHHHHHMLTKERTLQYFHEYFSEWIEIYKRGAVRPVTYQKYLMTLQRLTELSPNLKICELDKRKYQTLLNDYAKTHERQTTMDFHHHLKSAILDAMDEGLLTIDPTRKVIIKGKPVSDKKNKFLSQFELQSLLKSLNLTDKPNWDWFILLVAKTGLRFSEALALTPKDFDFECQKVKISKTWNYKNAEGGFGETKNLSSKRTIQIDIQLNTQIERLSKDLADDEPIFVQGRVFNSTVNNRLKVLCKKAGVPIISAHCLRHTHASLLIFAGVSIASIAKRLGHSSISTTQETYLHIIKELESQDNDKIMSHLSMITQ” the “soluble on expression in E. coli” value was “not soluble”.
For “MGSDKIHHHHHHMETLELQGAKLRYHQVGQGPVLIFIPGANGTGNIFLPLAEQLKDHFTVVAVDRRDYGESELTEPLPDSASNPDSDYRVKRDAQDIAELAKSLSDEPVYILGSSSGSIVAMHVLKDYPEVVKKIAFHEPPINTFLPDSTYWKDKNDDIVHQILTEGLEKGMKTFGETLNIAPIDAKMMSQPADTEEGRIEQYKRTMFWSEFEIRQYTHSDITLDDFTKYSDKITLLNGTDSRGSFPQDVNFYINKETGIPIVDIPGGHLGYIQKPEGFADVLLNMWG”, the “soluble on expression in E. coli” value was “not soluble”.
With “LAEGEEQIVARDGNSWLVDGVTPITDVMRSFAIEEFPQQQNYETIAGFMMYMLRKIPRRTDSVVYAGYKFEVVDIDNYKVDQLLVSRVE” the “soluble on expression in E. coli” value was “not soluble”.
In the case of “MGSDKIHHHHHHMYLAYYGFAEKPFQLKPDPNFFFPSRGHKRAAAYLEYGLSQEDGFIIITGDVGAGKTTLMRYLFQKLRQERVAAAQLVSTRLDPDDALRMVAAAFGLSYEGLSKAALLLELERFMRKCERESTRVLLVVDEAQNLLPQTLEELRMLSNFQSDNRPLLQTFLLGQPEFRRTLLGSQMQQLRQRVIATYHLGPLDQAETRAYIEHRLQKAGWNGSPVLQDEIFEVIHNFSAGIPRKINLFCDRLLIMGCLEELQTLGKAEANEVMLDIQKEFDLAVSPE”, the “soluble on expression in E. coli” value is reported as “not soluble”.
For “MSKVALFSHVSPDGDCIGSMLGIGLALEALGKEVAMFNPDPIPRNLSFLPGVDKITQSMPDPLPETLLFVDCADLQRVQLQREDLPADAVILNLDHHISNQNFGRINWVDSQAAASGELAYALVRRLNVELTQEIAANFYTALLTDTGSFKYANTTAKTHQIAGELMELEHHHHHH”, the “soluble on expression in E. coli” value was “not soluble”.
With “MGHHHHHHSHMLRILKKDCALTGGEVTLANQTKIFYVIKAPSLCSLVGSPSSDSVTSQELFKTFPCETPLSMPLVSTSNPLLSIVRLMVSPKPYDLTGVLCFGEDHETHYILRRVAKILTMTQEELDTICDIELHFSSNETLSSNRVPSRLTESIFPGLVPTVHFPQNMILSRGFFTGGNGPIIKHVAQTHHLTSDFVARVFYALKTPQAHAPGAAQLYRGLQIMNHAHNGLDFFPSDSDINDMQQMFLKHVLLSRKGTDSCAQMFFQAYLPVAPEVLGPEVIERVELALAKIELFANNTVFCMSTISTIVRPRIQVTTSANIKYIRMANKYFTMFPPINKDTAVIFGAAVLDQICKETPIREIVLVLRKYAHVVRRPHTPTIKLYTVLTL” the “soluble on expression in E. coli” value was “not soluble”.
For “GAMGSPKEHIDLYQQIKWNGWGDTRKFLHQLKPSGTIAMTTPEVSSVPLPSLRGFIKKELTLPGEEDKPFVLDETPALQIENIHVDPPKQYPEFVRELKAFFLPDQLKDDKLARITHTFGKSLRDLIRVRIGQVKNAPDLIVLPHSHEEVERLVQLAHKYNVVIIPMGGGSNIVGAIEPVSNERFTVSIDMRRMNKVLWVDRREMTACIQVGIMGPELEKQLHKQGVSLGHDPDSFEFSTLGGWLATCSSGHQSDKYGDIEDMAVSFRTVTPTGTLELRNGARSGAGINYKHIILGSEGTLGIITEAVMKVHAVPQAVEYYGFLFPTFAHAVSALQQIRSSEVIPTMIRVYDPEETQLSFAWKPSKGAVSEFTSAMVKKYLHYIRSFDFKNVCLSIIGFEGPKKVVDFHRTSVFDILSKNAAFGLGSAPGKTWAEKRYDLPYIRDFLLDHNMWVDVAETTVSYANLQTLWKDAKQTFVKHFKDQGIPAWICAHISHTYTNGVCLYFIFASKQNENKDMAQYIEAKKLMTDIIFKYGGSLSHHHGVGYEHVPWMTRYATRGWINVYRSLKETIDPKDICNPRKLI”, the “soluble on expression in E. coli” value was “soluble”.
With “MSLDPIEFIQKSASSIASTMHKLKLKYNPFSEKPIRGNTKFFVGRVSELREIGEILGSALHGSVANAAIVGTKGIGKSSMLNIIYYATKKQGHWVVEMTASQVTPRQFLIQLLYNILTENIITMSGTIKSDYMEHSSRILDMYRKLNNYGDKVPIHYPRERIERDLEYLINEVKSPDKLCIILIDEADQFAKKSCLSLLQFFHSFLYEEGILTFMAGSPTLMDDLTKISPPIKDRIPKIINMPPLSKDESYDLIRRRLEDAHIDGAEEFEPFTEEAIHKIVEECDGIPRKIIMTCSESISIAIRKGLTKIDEKVVKEAMHSLGISVGHQILNHLTPAQSEIVRAMAELGGSATVTQLAEYLKKSPSTIGTHLSDIYEMGYIYKEREGNNVYYKLSKELRDVLIGEDDEGHHHHHH” the “soluble on expression in E. coli” value was “soluble”.
With “GSASKICQFKLVLLGESAVGKSSLVLRFVKGQFHEYQESTIGAAFLTQSVCLDDTTVKFEIWDTAGQERYHSLAPMYYRGAQAAIVVYDITNQETFARAKTWVKELQRQASPSIVIALAGNKADLANKRMVEYEEAQAYADDNSLLFMETSAKTAMNVNDLFLAIAKKLPKSEPQNLGG” the “soluble on expression in E. coli” value was “soluble”.
For “MGSDKIHHHHHHMLLHLSTWQEVEAYLQQSKGIIFPIGSTEQHGPTGLIGTDAICAEAIAAGVGDATGAIVGPTINVGMALHHTAFPGTISLRPSTLIQVVRDYVTCLAKAGFSKFYFINGHGGNIATLKAAFSETYAHLEDLQIANAQQVQCQVANWFMCGSVYKLAKELYGDQEGSHATPSEVALTQYVYPEAIKQAPLSPEVASGHRIYSAADFRVRYPDGRMGSNPGLATPEHGKQFYDLAVKELSNGYLEFVNAD”, the “soluble on expression in E. coli” value was “not soluble”.
In the case of “MKTTKFNIENLDLFYGENQALKSINLPIPTRQVTALIGPSGCGKSTLLRCLNRMNDLIEGVTITGKLTMDGQDVYGNIDVSDLRIRVGMVFQKPNPFPMSIYENVAYGLRAQGIKDKKHLDEVVERSLRGAALWDEVKDRLKSHAFGLSGGQQQRLCIARTIAMEPDVILMDEPTSALDPIATHKIEELMEDLKKNYTIVIVTHSMQQARRISDRTAFFLMGELVEHDDTQVIFSNPRDDRTRGYVNGDFG”, the “soluble on expression in E. coli” value is reported as “not soluble”.
With “MKKVQPLNPEQVKRFLETAKQDPLYPAFLLALGTGLRRGEILGLRWQDLDLQKGILQVRQSLIRTREGLKFEEPKTEKSRRQIPLPPSVVAALKRHKAWVNQNKLILGPDYEDHDLVFPVENGRPRDPKGFAEYFNRLLDKAGLPHIRLHDLRHTHATLLLLEGVHPKVVQERLGHSTVSITLDIYSHILPGLQEKAAERIDGLLQPKENPSPKEGTIKLEHHHHHH” the “soluble on expression in E. coli” value was “soluble”.
For “MIFLNRERKGETNDHFDVNRVKFDDLGIPQDTGGLNRIRFKGENLGIMPTQLGHITPWLYRHFEYAYHVALQFNQHQKFQKLQKLRKLQKELPIAERAGEIVELLKTNQVLIVAGDTGCGKSTQVPQYLLKAGFTGVACTQPRRIACTALARRVAYETLNQYGSEVAFQIRFETTKSQKTKLLFLTEGLLLRQMEKDSLLEKYNVIILDEVHERHLTSDLLIGLLRDLCTKRDDLKLILMSATINLDLFKGYFEGAPVVQVPGRLFPIDVRWHPIKQFIDQSDKKTHKIDPEPYLKILELIDKQFPSTQRGDALIFLNGVAEISMVAEHLKNYAELTNGWIILMLHSTLSVEEQDKVFDQAPVGIRKCILSTNVAETSVTIDGIRFVIDSGKVNLIKHEPGTGTQKLTEFWVSKASANQRKGRAGRTGPGICYRLYSQEQFEKMDDFTVSEINRVSLQEMALKMISLNLGLDPRTFPFIEKPSEDVLNEGLEVLKFQRVLRSDRGDILTLTALGNMVSKLPVEVPIAKMLVYGCVVDELEVMLTVAAGLSVQSPFTNRSYRELEIVERRASLTSPLGDPFTLISIFREWVLQKAFEGTARRWTMENGIDEHRLYEISKLRAQYRQILEDAGLVEKASAAETGEDDSRQRRIDQGEKRKLFDLKKSQRNNDRRQKVLNANKHFDKILEDKEEEDLEAEKDPLKADVKTVEFLLSHKQRDVENIRKTHKISRKTAEVVRVIIAAGLYPNFSILDPVNKYGYGQEMFTHTRLKPFTQIHPNSSIAQYHPETIDPRQGSDGFSRLHQIPFYGLLLETTKPYICNVMPVPAVYTLLVAQKIVIEDDWSQLSIDDFLELRFRSSTDCRSVLLDAKEIRYELTKGLAAKLVGEAGFSGRRRLAKYIDLLNQSIVEKGIEVAVRRNVHPPKVLTGIGIHSPDGGIDKEEDVDDLVQRFERDQEPVHSAREEELEDQKVLDELRADVMCPPTRDMIEEAEKLKELKKKEIPKESYYEKLLKRQKAKEDDEKTEKKPKLEPLDTMEE”, the “soluble on expression in E. coli” value was “soluble”.
In the case of “MATVSTNEFKGGLKIMLDNEPCVILENEYVKPGKGQAFNRVRIRKLLTGKVLEKTFKSGDTAEVADVVDIDLDYLYNDGEFYHFMNNSTFEQLAADAKAVGENAKWLVENNTCMLTLWNGNPIAVTPPNFVELEVTETDPGVKGDTQGTGGKPATLSTGAVVRVPLFVQIGEVIKVDTRSAEYVGRVK”, the “soluble on expression in E. coli” value is reported as “soluble”.
In the case of “MSLIIKKLKQSHSVKILCEVFNVHRSSYHYWLKRPALINAETIKLRSLISEAHAASNGSAGARTIADIVTNQGVKLSRYRATKLMRTLGLVSCQEPKHRYRKASQEHIDVPNHLSRQFAVTAPNEVWAGDVTYIWTGNRWMYLAVVIDLFARKVIGWSMSLSPDSRLTGKALSMAYESRGKPKGVMFHSDQGSHYTSRKYRQLLWRFQIKQSLSRRGNCWDNAPIERFFRSLKTEWVPTVGYRSFAEAQQEITRYIIGYYCQLRPHQYNGGLTPNESERLYWENSKTVANFSEGHHHHHH”, the “soluble on expression in E. coli” value is reported as “not soluble”.
For “MGSHHHHHHDITSLYKKAGSAAAVLEENLYFQGSFTMLHEIPKSEILKELKRIGAKRVLIQSPEGLRREAEELAGFLEENNIEVFLHGEINYGACDPADREAKLVGCDALIHLGHSYMKLPLEVPTIFVPAFARVSVVEALKENIGEIKKLGRKIIVTTTAQHIHQLKEAKEFLESEGFEVSIGRGDSRISWPGQVLGCNYSVAKVRGEGILFIGSGIFHPLGLAVATRKKVLAIDPYTKAFSWIDPERFIRKRWAQIAKAMDAKKFGVIVSIKKGQLRLAEAKRIVKLLKKHGREARLIVMNDVNYHKLEGFPFEAYVVVACPRVPLDDYGAWRKPVLTPKEVEILLGLREEYEFDEILGGPRESDEPFGISIHSTR”, the “soluble on expression in E. coli” value was “soluble”.
For “MSLTPSIISIQSQVVHGHVGNSAAVLPMQGHGVTVAAVPTTLLSNHPGFETVRGRVLESELVGDLLRGVEERGLIETSGYIVSGYLGSRANGEVVASFVKRARRLNPDITYICDPVMGDAALGVFVADQVVSCLCDDLIPLADLLTPNQFEVGLIAGRPLSTWRELEAAVLKIRAPRGARLVVTGCALSDTPDGALENIVFDDKTHTRLTSPRLPLAPAGTGDLYTGLLTAKLARGHTLVEAACHAATSVLDVLQQTMAAGEHEMQLARAITTLGPACKETSEGHHHHHH”, the “soluble on expression in E. coli” value was “soluble”.
